Results taken from patent US20260258113.

Target: alpha globin, endogenous, in perfused human omental arteries, P69905
Sequence (P69905 2-142): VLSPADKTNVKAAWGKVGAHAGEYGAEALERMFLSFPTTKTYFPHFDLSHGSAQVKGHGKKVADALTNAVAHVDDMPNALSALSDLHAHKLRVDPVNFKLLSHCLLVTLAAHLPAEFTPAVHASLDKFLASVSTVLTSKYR

B1: endothelial nitric oxide synthase (eNOS), endogenous, in human resistance arteries (protein)
chain: GNLKSVAQEPGPPCGLGLGLGLGLCGKQGPATPAPEPSRAPASLLPPAPEHSPPSSPLTQPPEGPKFPRVKNWEVGSITYDTLSAQAQQDGPCTPRRCLGSLVFPRKLQGRPSPGPPAPEQLLSQARDFINQYYSSIKRSGSQAHEQRLQEVEAEVAATGTYQLRESELVFGAKQAWRNAPRCVGRIQWGKLQVFDARDCRSAQEMFTYICNHIKYATNRGNLRSAITVFPQRCPGRGDFRIWNSQLVRYAGYRQQDGSVRGDPANVEITELCIQHGWTPGNGRFDVLPLLLQAPDDPPELFLLPPELVLEVPLEHPTLEWFAALGLRWYALPAVSNMLLEIGGLEFPAAPFSGWYMSTEIGTRNLCDPHRYNILEDVAVCMDLDTRTTSSLWKDKAAVEINVAVLHSYQLAKVTIVDHHAATASFMKHLENEQKARGGCPADWAWIVPPISGSLTPVFHQEMVNYFLSPAFRYQPDPWKGSAAKGTGITRKKTFKEVANAVKISASLMGTVMAKRVKATILYGSETGRAQSYAQQLGRLFRKAFDPRVLCMDEYDVVSLEHETLVLVVTSTFGNGDPPENGESFAAALMEMSGPYNSSPRPEQHKSYKIRFNSISCSDPLVSSWRRKRKESSNTDSAGALGTLRFCVFGLGSRAYPHFCAFARAVDTRLEELGGERLLQLGQGDELCGQEEAFRGWAQAAFQAACETFCVGEDAKAAARDIFSPKRSWKRQRYRLSAQAEGLQLLPGLIHVHRRKMFQATIRSVENLQSSKSTRATILVRLDTGGQEGLQYQPGDHIGVCPPNRPGLVEALLSRVEDPPAPTEPVAVEQLEKGSPGGPPPGWVRDPRLPPCTLRQALTFFLDITSPPSPQLLRLLSTLAEEPREQQELEALSQDPRRYEEWKWFRCPTLLEVLEQFPSVALPAPLLLTQLPLLQPRYYSVSSAPSTHPGEIHLTVAVLAYRTQDGLGPLHYGVCSTWLSQLKPGDPVPCFIRGAPSFRLPPDPSLPCILVGPGTGIAPFRGFWQERLHDIESKGLQPTPMTLVFGCRCSQLDHLYRDEVQNAQQRGVFGRVLTAFSREPDNPKTYVQDILRTELAAEVHRVLCLERGHMFVCGDVTMATNVLQTVQRILATEGDMELDEAGDVIGVLRDQQRYHEDIFGLTLRTQEVTSRIRTQSFSLQERQLRGAVPWAFDPPGSDTNSP
ROI average fluorescence lifetime after co-labelling with the alpha globin and eNOS antibodies (FLIM, FRET-like shift): the eNOS + HBA ROIs lie at about 2.9 to 3.6 ns, below HBA alone (about 3.6 to 4.2 ns) and eNOS alone (about 3.8 to 4.15 ns); p<0.0001 printed for both comparisons
fluorescence lifetime histogram after co-labelling with the alpha globin and eNOS antibodies (FLIM, FRET-like shift): the co-labelled curve d (HBA + eNOS) peaks at about 3.95 ns, left of HBA only (b, about 4.2 ns), eNOS only (c, about 4.25 ns) and unstained (a, about 4.35 ns)
